Data published in patent US20230406935A1 (F STAR THERAPEUTICS, published 2023).
Where a chain is given by its changes, count along the chain named.

Experiments:
[1] = target: T1, Human PD-L1 expressed on cells (human, UniProt Q9NZQ7 19-290); assay: flow cytometry, HEK293 cells overexpressing the target, anti-human Fc 488
T1 construct: also called cell-surface human PD-L1; hPD-L1
Procedure: (§1) Cell binding assays were performed by incubating Fcabs or mAb² proteins with either control HEK293 cells or HEK293 cells overexpressing hPD-L1 or cynomolgus PD-L1 cells for 1 hour at 4° C. Fcab/mAb binding was subsequently detected using an anti-human Fc 488 detection antibody. Fluorescent signal intensities were measured using a FACS canto.

[2] = target: T2, Cynomolgus PD-L1 expressed on HEK 293 cells (cynomolgus, UniProt Q9NZQ7 19-290 (human entry)); assay: as above
T2 construct: also called cell-expressed cynomolgus PD-L1
Procedure: as §1

[3] = target: T1, Human PD-L1 expressed on cells; assay: cell-based or functional assay
[4] = target: T3, Monomeric cynomolgus PD-L1 (Acro Biosciences PD1-C52H4) (cynomolgus, UniProt Q9NZQ7 19-238 (human entry)); assay: SPR Biacore T200, mAb^2 captured by anti-Fab on CM5, monomeric antigen in flow, 1:1 fit
T3 construct: also called cynomolgus monomeric PD-L1

[5] = target: T4, Monomeric His-tagged human PD-L1 (Acro biosystems PD1-H5229) (human, UniProt Q9NZQ7 19-238); assay: as above
T4 construct: also called hPD-L1-his; PD-L1-his

[6] = target: T4, Monomeric His-tagged human PD-L1 (Acro …); assay: off-rate on PD-L1, mock mAb^2; instrument not given
[7] = target: T4, Monomeric His-tagged human PD-L1 (Acro …); assay: off-rate, binding to hPD-L1, mock mAb^2; instrument not stated
[8] = target: T1, Human PD-L1 expressed on cells; assay: cell-based or functional assay; remark: listed apart in the source

T2 sequence (Q9NZQ7 other isoform, or with tags, fused parts or gaps limits assumed): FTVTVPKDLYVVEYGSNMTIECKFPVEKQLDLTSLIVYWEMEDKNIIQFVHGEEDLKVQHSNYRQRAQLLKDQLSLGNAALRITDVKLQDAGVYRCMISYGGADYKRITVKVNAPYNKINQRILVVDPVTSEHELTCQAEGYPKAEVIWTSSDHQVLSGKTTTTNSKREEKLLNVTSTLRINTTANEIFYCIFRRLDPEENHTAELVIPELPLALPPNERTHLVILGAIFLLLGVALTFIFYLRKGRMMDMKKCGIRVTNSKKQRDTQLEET
T4 sequence (Q9NZQ7 19-238 limits assumed): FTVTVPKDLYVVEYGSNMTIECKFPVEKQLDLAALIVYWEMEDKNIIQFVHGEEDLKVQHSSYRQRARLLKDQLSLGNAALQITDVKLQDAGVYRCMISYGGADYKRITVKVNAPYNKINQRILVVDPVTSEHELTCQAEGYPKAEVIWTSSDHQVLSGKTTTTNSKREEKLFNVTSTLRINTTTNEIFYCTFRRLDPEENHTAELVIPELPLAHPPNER
T3 sequence (Q9NZQ7 other isoform, or with tags, fused parts or gaps limits assumed): as the sequence (Q9NZQ7 19-238 limits assumed) above, with A33T, A34S, S62N, R68Q, Q82R, F173L, T185A, T192I, H215L counted along it
T1 sequence (Q9NZQ7 19-290 limits assumed): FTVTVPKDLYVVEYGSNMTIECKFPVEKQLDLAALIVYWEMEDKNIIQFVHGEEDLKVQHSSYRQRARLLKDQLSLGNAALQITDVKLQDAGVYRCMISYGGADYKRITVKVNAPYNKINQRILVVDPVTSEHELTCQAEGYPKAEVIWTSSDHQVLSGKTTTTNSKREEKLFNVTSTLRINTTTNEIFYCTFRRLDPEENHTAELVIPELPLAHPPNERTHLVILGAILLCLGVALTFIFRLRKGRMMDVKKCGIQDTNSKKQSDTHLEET

B1: FS17-33-289AA/HelD1.3 mock mAb^2 (bispecific antibody, human IgG1, kappa, L234A L235A)
heavy: QVQLQESGPGLVRPSQTLSLTCTVSGSTFSGYGVNWVRQPPGRGLEWIGMIWGDGNTDYNSALKSRVTMLVDTSKNQFSLRLSSVTAADTAVYYCARERDYRLDYWGQGSLVTVSSASTKGPSVFPLAPSSKSTSGGTAALGCLVKDYFPEPVTVSWNSGALTSGVHTFPAVLQSSGLYSLSSVVTVPSSSLGTQTYICNVNHKPSNTKVDKKVEPKSCDKTHTCPPCPAPEAAGGPSVFLFPPKPKDTLMISRTPEVTCVVVDVSHEDPEVKFNWYVDGVEVHNAKTKPREEQYNSTYRVVSVLTVLHQDWLNGKEYKCKVSNKALPAPIEKTISKAKGQPREPQVYTLPPSRDESGYWVSLTCLVKGFYPSDIVVEWESNGEPQYWAKTTPPVLDSDGSFFLYSKLTVSNWRWQLDDFSCSVMHEALHNHYTQKSLSLSPGK
light: DIQMTQSPASLSASVGETVTITCRASGNIHNYLAWYQQKQGKSPQLLVYNAKTLADGVPSRFSGSGSGTQYSLKINSLQPEDFGSYYCQHFWSTPRTFGGGTKLEIKRTVAAPSVFIFPPSDEQLKSGTASVVCLLNNFYPREAKVQWKVDNALQSGNSQESVTEQDSKDSTYSLSSTLTLSKADYEKHKVYACEVTHQGLSSPVTKSFNRGEC
notes: also called F17-33-289AA/HelD1.3; F17-33-289AA/HELD1.3
For B1, the Kd [1] was 3900 pM, the Kd [2] was 2200 pM and the “DO11.10 T cell activation assay EC50” value [3] was 1560 pM.

B2: FS17-33-288AA/HelD1.3 mock mAb^2 (bispecific antibody, human IgG1, kappa, L234A L235A)
heavy: B1 heavy with L417I
light: B1 light
notes: also called F17-33-288AA/HelD1.3; F17-33-288AA/HELD1.3
Binder B2 has a Kd [4] of 2000 pM, a Kd [5] of 1430 pM and a Kd [1] of 15200 pM. The Kd [2] was 7800 pM and the “DO11.10 T cell activation assay EC50” value [3] was 428 pM.

B3: FS17-33-296AA/HelD1.3 mock mAb^2 (bispecific antibody, human IgG1, kappa, L234A L235A)
heavy: B1 heavy with L417V
light: B1 light
notes: also called F17-33-296AA/HelD1.3; F17-33-296AA/HELD1.3
With B3 the Kd [1] was 2700 pM, the Kd [2] was 2000 pM and the “DO11.10 T cell activation assay EC50” value [3] was 1120 pM.

B4: FS17-33-334AA/HelD1.3 mock mAb^2 (bispecific antibody, human IgG1, kappa, L234A L235A)
heavy: B1 heavy with V376A
light: B1 light
In the case of B4, the koff [6] is reported as 0.000372 s⁻¹, the Kd [4] is reported as 1900 pM and the Kd [5] is reported as 1450 pM. The Kd [1] was 8900 pM, the Kd [2] was 910 pM and the koff [7] was 0.000291 s⁻¹. The “DO11.10 EC50” value [8] was 403 pM and the “DO11.10 T cell activation assay EC50” value [3] was 934 pM.

B5: Fcab FS17-33-288 with LALA mutation (designed binder)
chain: TCPPCPAPEAAGGPSVFLFPPKPKDTLMISRTPEVTCVVVDVSHEDPEVKFNWYVDGVEVHNAKTKPREEQYNSTYRVVSVLTVLHQDWLNGKEYKCKVSNKALPAPIEKTISKAKGQPREPQVYTLPPSRDESGYWVSLTCLVKGFYPSDIVVEWESNGEPQYWAKTTPPVLDSDGSFFLYSKLTVSNWRWQIDDFSCSVMHEALHNHYTQKSLSLSPGK
With B5 the “DO11.10 T cell activation assay EC50” value [3] was 137 pM.

B6: Fcab FS17-33-289 with LALA mutation (designed binder)
chain: B5 chain with I194L
For B6, the “DO11.10 T cell activation assay EC50” value [3] was 228 pM.

B7: Fcab FS17-33-296 with LALA mutation (designed binder)
chain: B5 chain with I194V
In the case of B7, the “DO11.10 T cell activation assay EC50” value [3] is reported as 166 pM.

B8: Fcab FS17-33-334 with LALA mutation (designed binder)
chain: B5 chain with V153A, I194L
B8 was tested, and the “DO11.10 T cell activation assay EC50” value [3] was 381 pM.

B9: FS17-33-449AA/HelD1.3 mock mAb^2 (bispecific antibody, human IgG1, kappa, L234A L235A)
heavy: QVQLQESGPGLVRPSQTLSLTCTVSGSTFSGYGVNWVRQPPGRGLEWIGMIWGDGNTDYNSALKSRVTMLVDTSKNQFSLRLSSVTAADTAVYYCARERDYRLDYWGQGSLVTVSSASTKGPSVFPLAPSSKSTSGGTAALGCLVKDYFPEPVTVSWNSGALTSGVHTFPAVLQSSGLYSLSSVVTVPSSSLGTQTYICNVNHKPSNTKVDKKVEPKSCDKTHTCPPCPAPEAAGGPSVFLFPPKPKDTLMISRTPEVTCVVVDVSHEDPEVKFNWYVDGVEVHNAKTKPREEQYNSTYRVVSVLTVLHQDWLNGKEYKCKVSNKALPAPIEKTISKAKGQPREPQVYTLPPSRDETGYWVSLTCLVKGFYPSDIAVEWESNGEPQYWAKTTPPVLDSDGSFFLYSKLTVSNWRWQLDDVFSCSVMHEALHNHYTQKSLSLSPGK
light: B1 light
With B9 the Kd [4] was 900 pM, the Kd [5] was 490 pM and the koff [7] was 0.000311 s⁻¹. The “DO11.10 T cell activation assay EC50” value [3] was 950 pM.

B10: FS17-33-451AA/HelD1.3 mock mAb^2 (bispecific antibody, human IgG1, kappa, L234A L235A)
heavy: B9 heavy with T357E
light: B1 light
notes: also called F17-33-451AA/HelD1.3; F17-33-451AA/HELD1.3
For B10, the Kd [4] was 630 pM, the Kd [5] was 450 pM and the koff [7] was 0.000253 s⁻¹. The “DO11.10 T cell activation assay EC50” value [3] was 1040 pM.

B11: anti-PD-L1 mAb YW243.55.S1 (antibody, V domains shown)
VH: not shown
VL: DIQMTQSPSSLSASVGDRVTITCRASQDVSTAVAWYQQKPGKAPKLLIYSASFLYSGVPSRFSGSGSGTDFTLTISSLQPEDFATYYCQQYLFTPPTFGQGTKVEIKR
B11 was tested, and the “DO11.10 T cell activation assay EC50” value [3] was 257 pM.

B12: FS17-33-453AA/HELD1.3 (bispecific antibody)
chain 1: B9 heavy with T357L
chain 2: B1 light
In the case of B12, the koff [7] is reported as 0.000303 s⁻¹.

B13: FS17-33-454AA/HELD1.3 (bispecific antibody)
chain 1: B9 heavy with T357F
chain 2: B1 light
Binder B13 has a koff [7] of 0.000269 s⁻¹.

B14: FS17-33-455AA/HELD1.3 (bispecific antibody)
chain 1: B9 heavy with T357Y
chain 2: B1 light
For B14, the koff [7] was 0.000343 s⁻¹.

B15: FS17-33-456AA/HELD1.3 (bispecific antibody)
chain 1: B9 heavy with T357S, N412A
chain 2: B1 light
B15 was tested, and the koff [7] was 0.000619 s⁻¹.

B16: FS17-33-457AA/HELD1.3 (bispecific antibody)
chain 1: B9 heavy with T357S, N412Q
chain 2: B1 light
B16 gave a koff [7] of 0.000589 s⁻¹.

B17: FS17-33-458AA/HELD1.3 (bispecific antibody)
chain 1: B9 heavy with T357S, N412H
chain 2: B1 light
B17 showed a koff [7] of 0.000456 s⁻¹.

B18: FS17-33-459AA/HELD1.3 (bispecific antibody)
chain 1: B9 heavy with T357S, Q416R
chain 2: B1 light
For B18, the koff [7] was 0.00038 s⁻¹.

B19: FS17-33-460AA/HELD1.3 (bispecific antibody)
chain 1: B9 heavy with T357S, Q416H
chain 2: B1 light
B19 gave a koff [7] of 0.000202 s⁻¹.

B20: FS17-33-461AA/HELD1.3 (bispecific antibody)
chain 1: B9 heavy with T357S, Q416S
chain 2: B1 light
B20 showed a koff [7] of 0.000359 s⁻¹.

B21: FS17-33-462AA/HELD1.3 (bispecific antibody)
chain 1: B9 heavy with T357S, D419A
chain 2: B1 light
B21 showed a koff [7] of 0.000899 s⁻¹.
